The target of data set [1] is JASPer (untagged, in JJ-complex);JIL-1 (Drosophila melanogaster;Drosophila melanogaster) (UniProt Q9V3I5). Put plainly: nucleosome library pull-down with sequencing. As to conditions: H3K36me3; DNA EMSA: 50 mM HEPES pH 7.6, 50 mM NaCl, 10% glycerol, 2 mM MgCl2, 10% BSA, RT 10 min; RNA EMSA: 25 mM HEPES pH 7.6, 100 mM KCl, 3 mM MgCl2, 1 mM DTT, 5% …; scale: fold enrichment over unmodified nucleosome.

Data set [2] has as its target T1, JASPer (Drosophila melanogaster) (UniProt Q9VAA9).
T1 sequence: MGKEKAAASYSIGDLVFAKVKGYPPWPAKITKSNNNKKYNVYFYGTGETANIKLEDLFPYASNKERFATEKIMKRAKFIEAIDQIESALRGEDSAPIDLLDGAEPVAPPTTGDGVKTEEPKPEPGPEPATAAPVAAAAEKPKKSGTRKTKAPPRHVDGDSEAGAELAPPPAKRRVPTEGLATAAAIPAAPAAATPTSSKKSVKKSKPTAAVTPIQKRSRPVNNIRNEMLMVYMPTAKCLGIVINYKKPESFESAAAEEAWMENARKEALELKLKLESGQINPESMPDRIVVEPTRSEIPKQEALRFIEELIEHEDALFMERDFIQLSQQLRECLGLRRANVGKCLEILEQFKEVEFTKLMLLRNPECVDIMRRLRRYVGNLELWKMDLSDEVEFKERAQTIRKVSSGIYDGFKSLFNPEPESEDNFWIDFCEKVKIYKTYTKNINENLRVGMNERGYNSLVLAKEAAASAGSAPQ
Put plainly: nucleosome library pull-down with sequencing. The arrangement: dose or concentration left out as unconfirmed. As to conditions: H3K36me3; scale: fold enrichment over unmodified nucleosome.

Data set [3] concerns the target JASPer-JIL-1 (JJ)-complex (FLAG-JIL-1 and untagged JASPer) (D. melanogaster) (UniProt Q9V3I5). As to the kind of experiment: pull-down; 1.5 pmol FLAG-tagged JASPer or JJ-complex pre-coupled to FLAG-M2 beads, incubated with 1.38 pmol library of 115 DNA-barcoded nucleosome types (12 fmol each) in 200 µL 20 mM Tris/Cl pH 7.5, 50 mM NaCl, 5 mM EDTA, 0.1% TWEEN 20, 4 h at 4 °C; read out by sequencing of the barcodes, relative to the unmodified nucleosome set to 1.

The target of data set [4] is JASPer-FLAG (D. melanogaster). Described as above.

Chain of JASPer-JIL-1 (JJ)-complex (FLAG-JIL-1 and untagged JASPer) (D. melanogaster) (Q9V3I5 whole entry, one chain of several): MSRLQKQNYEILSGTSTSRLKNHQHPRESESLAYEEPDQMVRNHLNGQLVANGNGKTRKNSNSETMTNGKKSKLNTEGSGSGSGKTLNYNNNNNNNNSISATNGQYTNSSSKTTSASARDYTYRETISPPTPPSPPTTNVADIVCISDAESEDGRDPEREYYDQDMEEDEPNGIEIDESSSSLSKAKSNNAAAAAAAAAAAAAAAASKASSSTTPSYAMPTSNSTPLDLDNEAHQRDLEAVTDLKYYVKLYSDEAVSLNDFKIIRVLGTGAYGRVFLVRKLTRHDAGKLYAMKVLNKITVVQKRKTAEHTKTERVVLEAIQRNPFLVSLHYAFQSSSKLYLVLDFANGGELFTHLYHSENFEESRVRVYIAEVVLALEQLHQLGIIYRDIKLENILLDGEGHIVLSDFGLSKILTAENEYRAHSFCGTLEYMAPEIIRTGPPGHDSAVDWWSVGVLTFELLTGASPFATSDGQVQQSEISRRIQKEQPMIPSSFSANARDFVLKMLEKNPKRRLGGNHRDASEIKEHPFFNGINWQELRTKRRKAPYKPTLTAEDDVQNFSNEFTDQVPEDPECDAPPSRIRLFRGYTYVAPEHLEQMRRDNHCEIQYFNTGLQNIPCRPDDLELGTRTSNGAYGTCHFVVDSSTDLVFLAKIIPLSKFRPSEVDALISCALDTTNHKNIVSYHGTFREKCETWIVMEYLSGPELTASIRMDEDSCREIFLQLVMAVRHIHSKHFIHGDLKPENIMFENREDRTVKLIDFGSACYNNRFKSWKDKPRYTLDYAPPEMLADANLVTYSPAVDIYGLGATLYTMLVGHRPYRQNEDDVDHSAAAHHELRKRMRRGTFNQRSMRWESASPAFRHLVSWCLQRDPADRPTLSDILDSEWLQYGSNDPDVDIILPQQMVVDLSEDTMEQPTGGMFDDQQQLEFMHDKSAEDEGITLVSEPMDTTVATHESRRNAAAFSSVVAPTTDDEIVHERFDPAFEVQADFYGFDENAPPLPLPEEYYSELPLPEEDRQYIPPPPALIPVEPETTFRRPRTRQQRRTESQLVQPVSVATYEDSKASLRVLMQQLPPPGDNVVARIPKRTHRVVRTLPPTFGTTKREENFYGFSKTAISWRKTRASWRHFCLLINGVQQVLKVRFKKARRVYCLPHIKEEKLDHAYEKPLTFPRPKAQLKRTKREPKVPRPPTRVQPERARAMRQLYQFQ
Chain of JASPer (untagged, in JJ-complex);JIL-1 (Drosophila melanogaster;Drosophila melanogaster) (Q9V3I5 whole entry, looked up, one chain of several): as the sequence (Q9V3I5 whole entry, one chain of several) above

With “H3K36me3 mononucleosome (barcoded library)”, the binding signal was determined as 70 in data set [1] and 40 in data set [2].
In data set [3], “nucleosome bearing the single H3K36me3 modification (complex)” had a fold enrichment over the unmodified nucleosome of 70 fold. In data set [4], this substance came in with a fold enrichment relative to the unmodified nucleosome of 40 fold.

Values taken from paper PMC6877644.
